Among the data in PMC11529724 are glutamylation activity with taxol-stabilized MTs, normalized to WT, Kd and glutamylation activity with taxol-stabilized MTs, increase against WT values, retold here.

Numbering of substitutions follows the chain as printed. Numbers in names are those of the source. Where two headings read alike, the source gives them in different places.

The target of assay [1] is microtubules assembled from porcine brain tubulin (porcine) (UniProt P02550).
Assay [2] deals with unmodified human microtubules (tubulin from tsA201 cells) (human (endogenous in tsA201)) (UniProt P68363). In words: TIRF microscopy binding assay.
For assay [3], the target named is microtubules assembled from porcine brain tubulin (porcine) (UniProt P02550). This is another data set of the same source.

Chain of microtubules assembled from porcine brain tubulin (porcine) (P02550 whole entry, chain 1 of 2): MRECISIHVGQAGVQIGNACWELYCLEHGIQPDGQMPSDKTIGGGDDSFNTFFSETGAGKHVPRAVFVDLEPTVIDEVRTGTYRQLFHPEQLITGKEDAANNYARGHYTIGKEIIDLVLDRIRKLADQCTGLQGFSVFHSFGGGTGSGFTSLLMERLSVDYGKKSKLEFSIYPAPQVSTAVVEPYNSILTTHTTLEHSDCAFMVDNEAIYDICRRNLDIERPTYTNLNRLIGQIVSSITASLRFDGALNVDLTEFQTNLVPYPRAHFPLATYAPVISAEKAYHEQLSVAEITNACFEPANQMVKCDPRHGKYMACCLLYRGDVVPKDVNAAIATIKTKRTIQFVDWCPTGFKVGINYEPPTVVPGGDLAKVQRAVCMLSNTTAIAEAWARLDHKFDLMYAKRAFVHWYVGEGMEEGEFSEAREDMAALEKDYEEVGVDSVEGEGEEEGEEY
Chain of microtubules assembled from porcine brain tubulin (porcine) (P02554 whole entry, chain 2 of 2, further chain): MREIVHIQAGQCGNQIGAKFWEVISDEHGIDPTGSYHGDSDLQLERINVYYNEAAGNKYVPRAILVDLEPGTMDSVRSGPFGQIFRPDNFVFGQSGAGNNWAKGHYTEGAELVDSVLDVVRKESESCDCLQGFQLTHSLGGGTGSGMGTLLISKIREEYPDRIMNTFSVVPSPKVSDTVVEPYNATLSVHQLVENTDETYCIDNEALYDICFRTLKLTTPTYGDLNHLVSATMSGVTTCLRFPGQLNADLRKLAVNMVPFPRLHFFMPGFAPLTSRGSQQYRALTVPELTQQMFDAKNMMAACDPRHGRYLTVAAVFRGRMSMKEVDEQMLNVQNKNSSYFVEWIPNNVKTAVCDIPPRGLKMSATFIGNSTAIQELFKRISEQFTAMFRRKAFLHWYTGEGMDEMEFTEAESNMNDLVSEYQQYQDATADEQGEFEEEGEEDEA

B1: TTLL6 Y479A (enzyme)
chain: GKKKRKKKRLVINLSNCRYDSVRRAAQQYGLREAGDNDDWTLYWTDYSVSLERVMEMKSYQKINHFPGMSEICRKDLLARNMSRMLKLFPKDFHFFPRTWCLPADWGDLQTYSRTRKNKTYICKPDSGCQGRGIFITRSVKEIKPGEDMICQLYISKPFIIDGFKFDLRVYVLVTSCDPLRVFVYNEGLARFATTSYSHPNLDNLDEICMHLTNYSINKHSSNFVQDAFSGSKRKLSTFNSYMKTHGYDVEQIWRGIEDVIIKTLISAHPVIKHNYHTCFPSHTLNSACFEILGFDILLDRKLKPWLLEVNHSPSFSTDSKLDKEVKDSLLYDALVLINLGNCDKKKVLEEERQRGRFLQQCPNREIRLEEVKGFQAMRLQKTEEYEKKNCGGFRLIYPGLNLEKYDKFFQDNSSLFQNTVASRARELAARQLIQELRQKQEKKVFLKKARK
On to B1, for which the glutamylation activity with taxol-stabilized MTs, normalized to WT in assay [1] is 35 % of WT.

B2: Atto488-labeled TTLL6 (enzyme)
chain: B1 chain with A429Y
modifications: Atto488 on the N-terminus, through the synthetic peptide NH2-(Atto488)-… ligated with sortase
As to B2, in assay [2], the Kd (in general, the equilibrium constant for the complex coming apart) was 210 nM.

B3: TTLL6 Leu409 to alanine (enzyme)
chain: B1 chain with L359A, A429Y
For B3, in assay [3], the glutamylation activity with taxol-stabilized MTs, normalized to WT is < 10 % of WT.

B4: TTLL6 F425 to alanine (enzyme)
chain: B1 chain with F375A, A429Y
For the molecule B4, the glutamylation activity with taxol-stabilized MTs, increase against WT in assay [3] came out at 59 % increase.

B5: TTLL6 F408 to alanine (enzyme)
chain: B1 chain with F358A, A429Y
In assay [3], B5 came in with a glutamylation activity with taxol-stabilized MTs, increase against WT of 70 % increase.

B6: TTLL6 Val422 to alanine (enzyme)
chain: B1 chain with V372A, A429Y
B6: the glutamylation activity with taxol-stabilized MTs, normalized to WT in assay [3] is < 10 % of WT.

B7: TTLL6 K490 to glutamate (enzyme)
chain: B1 chain with A429Y, K440E
As to B7, the glutamylation activity with taxol-stabilized MTs, normalized to WT in assay [1] is < 20 % of WT.
